Measured values reported in article PMC2212017.

Target: T1, TRPV2 (transient receptor potential vanilloid 2), endogenous in RBL2H3 mast cells (rat (endogenous in RBL2H3)), Q9WUD2
T1 chain: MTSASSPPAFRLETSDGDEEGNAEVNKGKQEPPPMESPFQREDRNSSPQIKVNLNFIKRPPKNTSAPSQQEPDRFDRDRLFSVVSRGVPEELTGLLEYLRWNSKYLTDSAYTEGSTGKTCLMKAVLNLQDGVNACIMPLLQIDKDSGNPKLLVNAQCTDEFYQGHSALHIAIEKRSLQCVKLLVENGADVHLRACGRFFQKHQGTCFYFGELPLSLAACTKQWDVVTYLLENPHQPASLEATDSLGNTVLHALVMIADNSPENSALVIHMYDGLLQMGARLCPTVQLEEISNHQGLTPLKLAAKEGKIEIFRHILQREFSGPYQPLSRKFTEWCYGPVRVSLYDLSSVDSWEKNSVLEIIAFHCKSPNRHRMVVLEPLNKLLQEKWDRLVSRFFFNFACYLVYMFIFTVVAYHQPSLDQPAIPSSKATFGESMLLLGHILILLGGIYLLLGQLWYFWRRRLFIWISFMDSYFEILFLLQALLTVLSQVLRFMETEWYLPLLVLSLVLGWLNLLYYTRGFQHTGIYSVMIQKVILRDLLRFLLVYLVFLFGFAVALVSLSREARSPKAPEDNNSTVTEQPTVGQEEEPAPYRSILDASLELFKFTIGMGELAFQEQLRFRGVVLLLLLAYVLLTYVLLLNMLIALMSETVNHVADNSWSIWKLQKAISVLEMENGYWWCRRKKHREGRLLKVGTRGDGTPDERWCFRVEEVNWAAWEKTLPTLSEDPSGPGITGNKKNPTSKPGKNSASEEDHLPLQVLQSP
Test: native gel or EMSA
Settings: remark: other sources report otherwise

stoichiometry N: 4
B1: TRPV2 (transient receptor potential vanilloid 2), endogenous in RBL2H3 mast cells, Q9WUD2 1-761 (natural protein)
chain: T1 chain
